Test results reported in patent US20110091994A1, “Methods for Screening Compounds for Treating and/or Preventing an Hepatitis C Virus Infection” (priority 2008, published 2011).
Like-named read-outs stand apart in the source and are kept apart here.

Legend:
[1] = biological target: T1, HCV proteins (Hepatitis C virus genotype 1b, UniProt Q9WMX2); assay: Validation by Y2H pairwise matrices; format: binding;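 also: yeast two-hybrid pairwise tests of interactions first found in Y2H screens of HCV bait proteins against human cDNA libraries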
T1 construct: expressed in transfected cells

[2] = test system: HCV ORFs (Gal4-DB fusions); format: binding, HCV genotype 1b, isolate con1; conditions: human protein listed by gene symbol; the value names the HCV protein it interacts with
[3] = biological target: T2, HCV ORFs (Gal4-DB fusions) (Hepatitis C virus genotype 1b, UniProt Q9WMX2); format: binding, HCV genotype 1b, isolate con1; conditions: human protein as prey
T2 construct: expressed in transfected cells; host or cells: Saccharomyces cerevisiae MAV203 (IMAP1) / AH109 (IMAP2)

[4] = validation of interaction with HCV protein NS3
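For IMAP Y2H IMAP1 (number of IST) in this document: yeast two-hybrid screens using HCV genotype 1b proteins fused to Gal4-DB as baits against prey cDNA libraries from human spleen and foetal brain, IMAP1 via transformation and IMAP2 via mating.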
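For Interaction with viral protein in this document: yeast two-hybrid screens using HCV genotype 1b proteins fused to Gal4-DB as baits against prey cDNA libraries from human spleen and foetal brain, IMAP1 via transformation and IMAP2 via mating.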

| Molecule | Y2H matrices [1, 4] | Interaction with viral protein [2] | IMAP Y2H IMAP1 (number of IST) ([3]; HCV protein NS3 as bait) | Y2H matrices ([1]; validation of interaction with HCV protein NS4A) | IMAP Y2H IMAP1 (number of IST) ([3]; HCV protein NS4A as bait) | Y2H matrices ([1]; validation of interaction with HCV protein NS2) | IMAP Y2H IMAP1 (number of IST) ([3]; HCV protein NS2 as bait) |
| --- | --- | --- | --- | --- | --- | --- | --- |
| ZNF410 (protein, UniProt Q86VK4 1-478, looked up) Zinc finger protein 410: MLSDELESKPELLVQFVQNTSIPLGQGLVESEAKDITCLSLLPVTEASECSRLMLPDDTTNHSNSSKEVPSSAVLRSLRVNVGPDGEETRAQTVQKSPEFLSTSESSSLLQDLQPSDSTSFILLNLTRAGLGSSAEHLVFVQDEAEDSGNDFLSSESTDSSIPWFLRVQELAHDSLIAATRAQLAKNAKTSSNGENVHLGSGDGQSKDSGPLPQVEKKLKCTVEGCDRTFVWPAHFKYHLKTHRNDRSFICPAEGCGKSFYVLQRLKVHMRTHNGEKPFMCHESGCGKQFTTAGNLKNHRRIHTGEKPFLCEAQGCGRSFAEYSSLRKHLVVHSGEKPHQCQVCGKTFSQSGSRNVHMRKHHLQLGAAGSQEQEQTAEPLMGSSLLEEASVPSKNLVSMNSQPSLGGESLNLPNTNSILGVDDEVLAEGSPRSLSSVPDVTHHLVTMQSGRQSYEVSVLTAVNPQELLNQGDLTERRT | + | NS3 | 1 |  |  |  |  |
| ELAC2 (protein, UniProt Q9BQ52 17-826, looked up) Zinc phosphodiesterase ELAC …: SQGRTISQAPARRERPRKDPLRHLRTREKRGPSGCSGGPNTVYLQVVAAGSRDSGAALYVFSEFNRYLFNCGEGVQRLMQEHKLKVARLDNIFLTRMHWSNVGGLSGMILTLKETGLPKCVLSGPPQLEKYLEAIKIFSGPLKGIELAVRPHSAPEYEDETMTVYQIPIHSEQRRGKHQPWQSPERPLSRLSPERSSDSESNENEPHLPHGVSQRRGVRDSSLVVAFICKLHLKRGNFLVLKAKEMGLPVGTAAIAPIIAAVKDGKSITHEGREILAEELCTPPDPGAAFVVVECPDESFIQPICENATFQRYQGKADAPVALVVHMAPASVLVDSRYQQWMERFGPDTQHLVLNENCASVHNLRSHKIQTQLNLIHPDIFPLLTSFRCKKEGPTLSVPMVQGECLLKYQLRPRREWQRDAIITCNPEEFIVEALQLPNFQQSVQEYRRSAQDGPAPAEKRSQYPEIIFLGTGSAIPMKIRNVSATLVNISPDTSLLLDCGEGTFGQLCRHYGDQVDRVLGTLAAVFVSHLHADHHTGLPSILLQRERALASLGKPLHPLLVVAPNQLKAWLQQYHNQCQEVLHHISMIPAKCLQEGAEISSPAVERLISSLLRTCDLEEFQTCLVRHCKHAFGCALVHTSGWKVVYSGDTMPCEALVRMGKDATLLIHEATLEDGLEEEAVEKTHSTTSQAISVGMRMNAEFIMLNHFSQRYAKVPLFSPNFSEKVGVAFDHMKVCFGDFPTMPKLIPPLKALFAGDIEEMEERREKRELRQVRAALLSRELAGGLEDGEPQQKRAHTEEPQAKKVRAQ |  | NS4A |  | + | 1 |  |  |
| POU3F2 (protein, UniProt P20265 1-443, looked up) POU domain, class 3, …: MATAASNHYSLLTSSASIVHAEPPGGMQQGAGGYREAQSLVQGDYGALQSNGHPLSHAHQWITALSHGGGGGGGGGGGGGGGGGGGGGDGSPWSTSPLGQPDIKPSVVVQQGGRGDELHGPGALQQQHQQQQQQQQQQQQQQQQQQQQQRPPHLVHHAANHHPGPGAWRSAAAAAHLPPSMGASNGGLLYSQPSFTVNGMLGAGGQPAGLHHHGLRDAHDEPHHADHHPHPHSHPHQQPPPPPPPQGPPGHPGAHHDPHSDEDTPTSDDLEQFAKQFKQRRIKLGFTQADVGLALGTLYGNVFSQTTICRFEALQLSFKNMCKLKPLLNKWLEEADSSSGSPTSIDKIAAQGRKRKKRTSIEVSVKGALESHFLKCPKPSAQEITSLADSLQLEKEVVRVWFCNRRQKEKRMTPPGGTLPGAEDVYGGSRDTPPHHGVQTPVQ |  | NS2 |  |  |  | + | 1 |
| ZZZ3 (protein, UniProt Q8IYH5 1-903, looked up) ZZ-type zinc …: MAASRSTRVTRSTVGLNGLDESFCGRTLRNRSIAHPEEISSNSQVRSRSPKKRPEPVPIQKGNNNGRTTDLKQQSTRESWVSPRKRGLSSSEKDNIERQAIENCERRQTEPVSPVLKRIKRCLRSEAPNSSEEDSPIKSDKESVEQRSTVVDNDADFQGTKRACRCLILDDCEKREIKKVNVSEEGPLNSAVVEEITGYLAVNGVDDSDSAVINCDDCQPDGNTKQNSIGSYVLQEKSVAENGDTDTQTSMFLDSRKEDSYIDHKVPCTDSQVQVKLEDHKIVTACLPVEHVNQLTTEPATGPFSETQSSLRDSEEEVDVVGDSSASKEQCKENTNNELDTSLESMPASGEPEPSPVLDCVSAQMMSLSEPQEHRYTLRTSPRRAAPTRGSPTKNSSPYRENGQFEENNLSPNETNATVSDNVSQSPTNPGEISQNEKGICCDSQNNGSEGVSKPPSEARLNIGHLPSAKESASQHITEEEDDDPDVYYFESDHVALKHNKDYQRLLQTIAVLEAQRSQAVQDLESLGRHQREALKNPIGFVEKLQKKADIGLPYPQRVVQLPEIVWDQYTHSLGNFEREFKNRKRHTRRVKLVFDKVGLPARPKSPLDPKKDGESLSYSMLPLSDGPEGSSSRPQMIRGRLCDDTKPETFNQLWTVEEQKKLEQLLIKYPPEEVESRRWQKIADELGNRTAKQVASRVQKYFIKLTKAGIPVPGRTPNLYIYSKKSSTSRRQHPLNKHLFKPSTFMTSHEPPVYMDEDDDRSCFHSHMNTAVEDASDDESIPIMYRNLPEYKELLQFKKLKKQKLQQMQAESGFVQHVGFKCDNCGIEPIQGVRWHCQDCPPEMSLDFCDSCSDCLHETDIHKEDHQLEPIYRSETFLDRDYCVSQGTSYNYLDPNYFPANR | + | NS3 | 1 |  |  |  |  |
| AEBP1 (protein, UniProt Q8IUX7 26-1158, looked up) Adipocyte enhancer-binding …: QTVLTDDEIEEFLEGFLSELEPEPREDDVEAPPPPEPTPRVRKAQAGGKPGKRPGTAAEVPPEKTKDKGKKGKKDKGPKVPKESLEGSPRPPKKGKEKPPKATKKPKEKPPKATKKPKEKPPKATKKPKEKPPKATKKPPSGKRPPILAPSETLEWPLPPPPSPGPEELPQEGGAPLSNNWQNPGEETHVEAREHQPEPEEETEQPTLDYNDQIEREDYEDFEYIRRQKQPRPPPSRRRRPERVWPEPPEEKAPAPAPEERIEPPVKPLLPPLPPDYGDGYVIPNYDDMDYYFGPPPPQKPDAERQTDEEKEELKKPKKEDSSPKEETDKWAVEKGKDHKEPRKGEELEEEWTPTEKVKCPPIGMESHRIEDNQIRASSMLRHGLGAQRGRLNMQTGATEDDYYDGAWCAEDDARTQWIEVDTRRTTRFTGVITQGRDSSIHDDFVTTFFVGFSNDSQTWVMYTNGYEEMTFHGNVDKDTPVLSELPEPVVARFIRIYPLTWNGSLCMRLEVLGCSVAPVYSYYAQNEVVATDDLDFRHHSYKDMRQLMKVVNEECPTITRTYSLGKSSRGLKIYAMEISDNPGEHELGEPEFRYTAGIHGNEVLGRELLLLLMQYLCREYRDGNPRVRSLVQDTRIHLVPSLNPDGYEVAAQMGSEFGNWALGLWTEEGFDIFEDFPDLNSVLWGAEERKWVPYRVPNNNLPIPERYLSPDATVSTEVRAIIAWMEKNPFVLGANLNGGERLVSYPYDMARTPTQEQLLAAAMAAARGEDEDEVSEAQETPDHAIFRWLAISFASAHLTLTEPYRGGCQAQDYTGGMGIVNGAKWNPRTGTINDFSYLHTNCLELSFYLGCDKFPHESELPREWENNKEALLTFMEQVHRGIKGVVTDEQGIPIANATISVSGINHGVKTASGGDYWRILNPGEYRVTAHAEGYTPSAKTCNVDYDIGATQCNFILARSNWKRIREIMAMNGNRPIPHIDPSRPMTPQQRRLQQRRLQHRLRLRAQMRLRRLNATTTLGPHTVPPTLPPAPATTLSTTIEPWGLIPPTTAGWEESETETYTEVVTEFGTEVEPEFGTKVEPEFETQLEPEFETQLEPEFEEEEEEEKEEEIATGQAFPFTTVETYTVNFGDF | + | NS3 | 2 |  |  |  |  |
| ACTN1 (protein, UniProt P12814 1-892, looked up) Alpha-actinin-1: MDHYDSQQTNDYMQPEEDWDRDLLLDPAWEKQQRKTFTAWCNSHLRKAGTQIENIEEDFRDGLKLMLLLEVISGERLAKPERGKMRVHKISNVNKALDFIASKGVKLVSIGAEEIVDGNVKMTLGMIWTIILRFAIQDISVEETSAKEGLLLWCQRKTAPYKNVNIQNFHISWKDGLGFCALIHRHRPELIDYGKLRKDDPLTNLNTAFDVAEKYLDIPKMLDAEDIVGTARPDEKAIMTYVSSFYHAFSGAQKAETAANRICKVLAVNQENEQLMEDYEKLASDLLEWIRRTIPWLENRVPENTMHAMQQKLEDFRDYRRLHKPPKVQEKCQLEINFNTLQTKLRLSNRPAFMPSEGRMVSDINNAWGCLEQVEKGYEEWLLNEIRRLERLDHLAEKFRQKASIHEAWTDGKEAMLRQKDYETATLSEIKALLKKHEAFESDLAAHQDRVEQIAAIAQELNELDYYDSPSVNARCQKICDQWDNLGALTQKRREALERTEKLLETIDQLYLEYAKRAAPFNNWMEGAMEDLQDTFIVHTIEEIQGLTTAHEQFKATLPDADKERLAILGIHNEVSKIVQTYHVNMAGTNPYTTITPQEINGKWDHVRQLVPRRDQALTEEHARQQHNERLRKQFGAQANVIGPWIQTKMEEIGRISIEMHGTLEDQLSHLRQYEKSIVNYKPKIDQLEGDHQLIQEALIFDNKHTNYTMEHIRVGWEQLLTTIARTINEVENQILTRDAKGISQEQMNEFRASFNHFDRDHSGTLGPEEFKACLISLGYDIGNDPQGEAEFARIMSIVDPNRLGVVTFQAFIDFMSRETADTDTADQVMASFKILAGDKNYITMDELRRELPPDQAEYCIARMAPYTGPDSVPGALDYMSFSTALYGESDL | + | NS3 | 9 |  |  |  |  |
